Data: the nanobody polyreactivity screen of Harvey et al. (2022)

Test: yeast display, Sf9 membrane polyspecificity reagent, FACS + sequencing; frameworks hold sequencing errors
Procedure, shortened: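 Nanobodies from a synthetic yeast display library (Saccharomyces cerevisiae BJ5465), induced 36–48 hours with galactose, were stained 1 hour at 4 °C with 10% biotinylated, detergent-solubilized Sf9 membrane reagent, enriched on streptavidin microbeads, then FACS-sorted. Anti-HA (expression) and streptavidin (reagent binding) fluorescence set low and high (top ~1%) gates. Polyreactivity labels come from the gate of origin. Genes were colony-PCR amplified, MiSeq 2 × 250 sequenced and filtered by CDR length.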

| Sequence | polyreactivity (PSR sort gate) |
| --- | --- |
| QVQLVESGGGLVQAGGSLRLSCAASGSIFVFYAMGWYRQAPGKERELVAAISYRGGSTYADSVKGRFTISRDNEKNTVYLQMNSLKPEDTAVYYCAARGLVRSYDYWGQGTQVTVSS | high polyreactivity |
| QDQLVESGGGLVQAGGSLRLSCAASGSTFTDYDMGWYRQAPGKERELVAAITSGGSTNYADSVKGRFTISRDNAKNTVYLQMNSLKPEDTAVYYCAAELRYYLYDVVYIVTYDYWGQGTQVTVSS | low polyreactivity |
| QVQLVESGGGLVQAGGSLRLSCAASGFTFYYYAMGWYRQAPGKERELVASISSSGGSTYYADSVKGRFTISRDNAKNTVYLQMNSLKPEDTAGYYCARYRRRYDTYPGDYWGQGTQVTVSS | high polyreactivity |
| QVLLQESGGGLVQAVGSLRLGCAASGTISPAYDIGRNHLAPGREREFVAAMTYGTNSYYSDSVKGRFTMSRDNAKNTVFLKMTSLKTEDTAVFYFSATGGYNCAHDYWGQGTQVTVSS | low polyreactivity |
| QGQLVESGGGLVQAGGSLRLSCAASGFIFRYYTMGWYRQAPGKERELVATITSGGSTYYADSVKGRFTISRDNAKNTVYLQMNSLKPEDTAVYYCNADTLGGKYVYQDRRGFDYWGQGTQVSVSS | high polyreactivity |
| QVQLVESGGGLVQAGGSLRFSCAASGSIFQHYAMGWYRQAPGKERELVAAISWSGGSTYYADSVKGRFSISRDNAKNTVYLQMNSLKPEDTAVYYCAATKRRFVKFDYWGQGTQVTVSS | low polyreactivity |
| QVQLVESWGGLVQAGGSLRLSCAASGSIFGENAMGWYREAPRKEMELVAAITSGGSTDYADSVKGRFTISRDNAKNTVYLQMNSPKVEDTAVYYCAASGRVGPGYCYDSWGQGTQVTVSS | low polyreactivity |
| QVQLVESGGGLVQAGGSLRLSCAASGFIFLYYAMGWYRQAPGKERELVAAISSSGGSTYYADSVKGRFTISRDNAKNTVYLQMNSLKPEDTAVYYCAARRKGKARVPQYDYWGQGTQVTVSS | high polyreactivity |
| QVQRVESGGGLVQAGGSLRLSCAASGFIFIRNAMGWYRQAPGKERELVAAISSGGRTYYADSVKGRFTISRDNAKNTVYLQMNSLQPEDTAVYYCATRPHRPRGHSVGQYDYWGQGTQVTVSS | high polyreactivity |
| QVQLVESGGGLVQAGGSLRLSCAASGIIFLDNAMGWYRQAPGKERELVAAITTGGITYYADSVKGRFTISRDNAKNTVYLQMNSLKPEDTAVYYCAADNEWPRYDYWGQGTQVTVSS | low polyreactivity |
| QVQLVESGVGLFQAGGSLRLSCAPSGSTFIGYAMEWYRQAPGKERELVAAISWSGGRTYYADSVKGRFTISRDNAKNTVYLQMISLKPEDTAVYYCNTVPYRISVQFNYWGQGTQVTLSS | high polyreactivity |
| QVHLVESVGGLVQAGGSLRLSCAASGRIFRYYAMGWYRQAPVKAWELVATISQRGGTYYADSVKGRFTISRDNAKNTVYLQMNSLKPEDTAVYYCAARINTYRSYYPSSRSDYWGQGTQVTVSS | high polyreactivity |
| QVQLVESGGGLVQAGGSLRLSCAASGSIFAYYAMGGYRQAPGKEREFVAAISKRGGRTYYADSVKGRFTISRDNAKNTVYLQMNSLKPEDTAVYYCAAPWAYPRSGGDYWGQGTQVTVSS | high polyreactivity |
| QVQLVESGGGLVQAGGSLRLSCAASGSIFWRYTMGWYRQAPGKERELVAAISTRGGSTYYADSVKGRFTISRDNAKNTVYLQMNSLKPEDTAVYYCNAVEGSRLPYDYWGQGTQVTVSS | low polyreactivity |
| QVQLVESGGGLVQAGGSLRLSCAASGSTFASYAMGWYRQAPGKEREFVAAISRSGGSTYYADSVKGRFTISRDNAKNTVYLQMNSLKPEDTAVYYCAARSPSADEYYYWGQGTQVTVSS | low polyreactivity |
| QVQLVESGGGLVQAGGSLRLSCAASGFTLRLNAMGWYRQAPGKERELVAAITTSDDGTYYADSVKGRFTISRDNAKNSVYLQLNSLKPEDTAVYYCAADYYSVLYDYWGQGTQVTVSS | low polyreactivity |
| QVQLVESGAGLVQAGGSLRLSCAASGFTFRYYAMGWYRQAPGKERELVATISASSGSTYYADSVKGRFTISRDNAKNTVYLQMNSLKPEDTAVYYGAKEPLASGWGYDYWGQGTQVTVSS | high polyreactivity |
| QVQIVESGGGLVQAGGSLRLSCAASGRIFSQNTMGWYRQAPGKERELVAVISWRGGRTSYADSVKGRFTISRDNAQNTVYLQMNSLKPEDTAVYYCNAKRYAGSNYDYWGQGTQVTVSS | high polyreactivity |
| QVQIVESGGGLVQAGGSLRLRCAASGRIVKYAMGWYRHAPGKERELVAAINSGGSTKYADSVKGRFTISRDNAKITVYLQMICLKPEDTAVYYCAARILYHMDLGQGTQVTVSS | high polyreactivity |
| QVQLVESGGGLVQAGGSLSLSCAASGRIFTQYAMGWSRQAPGKERELVTAINASDGSTYADSVKGRFTISRDNAKNTVYLQMNCLIPEDTAVYYCNVTGGPYDFTRWSEFDHWGQGTQVTVSS | low polyreactivity |
| QVQLVESGGGLVQAGGSLRVSCAASGFTFRGYAMGWYRQAPGKERELVAAIRRGVITNYADSVKGRFTISRDNAKNTVYLQMNSLKPEDTAVYYCAAGNITPYRYYHGYYQSIYDYWGQGTQVTVSS | low polyreactivity |
| QVQLVESGGGLVQAGGSLRLSCAASGSTLYDYTMGWYRQAPGKERELVAAIRVSGARTFYADSVKGRFTISRDNAKNTVYLQMNSLKPEDTAVYYCAARWYIANPLSPSDYWGQGTQVTVSS | low polyreactivity |

| Sequence | polyreactivity (PSR sort gate) |
| --- | --- |
| QVQLVESGGGLVQAGGSLRLSCAPSGRTFSVHAMGWYRPARGKGRELVAAISWDGGSTYYADSVKGRFTISRDNANNTVYLQMNSLKPEETAVYYCNKDLYYAYDYWGQGTQVTVSS | low polyreactivity |
| QFQLEESGGGLVQAGGSLRLSCAASGSTFSSYVMGWYRQAPGKERELVAAISSIGGSTYYADSVKGRFTISRDNAKNTVYLQMNSLKPEDTAVYYCAAEPPGSTYEGGYLGQGTQVTVSS | low polyreactivity |
| QVQLVESGGGLVQAGGSLRLSCAASGSIFKGYTMGWYRQAPGNERELVASMRPRGGSTYYADSVKGRFTMSRHNAKNPVDLQMNSLKPEDTAVYYCAAPWGGFAGQERKYDYWGQGTQVTVSS | low polyreactivity |
| QVQLVESGGGLVQAGGSLRLSCAASGSTFGYYAMRWYRQAPGKERELVAAIRSSGGGTYYADSVKGRFTISRDNAKNTVYLQMNSLKPEDTAVYYCATDAPILVNAEYDEWLEYDYWGQGTQVTVSS | low polyreactivity |
| QVQLVESGGGLVQAGGSLRLSCAASGITLRRNTMGWDRQAPGKERELVAAITRSGGSTYYADSVKGRFTISRDNAKNTVYLQMNSLKPEDTAVYYCAKGPSYGGPSHDYWGQGTQVTVSS | high polyreactivity |
| QVQLVESGGGLVQAGGSLRLSCAPSGIILYRYAMGWYRQAPGKERELVAAITYSGGSTYYADSVKGRFTISRDNAKNSVYLQMNSLNPEDTAVYYCAAESRAGRYYVSKPSNYWGQGTQVTVSS | high polyreactivity |
| QVQLVESGGGLVQAGGSLRLSCAASGSIFRGNVMGWYRQAPGKERELVAAISWSGGSTYYADSVKGRFTISRDNAKNTVYLQMNSLKPEDTAVYYCAVRVWGSARGMDYWGQGTQVTVSS | high polyreactivity |
| QVQLVESGGGLVQAGGSLRLTCAASGNTFSLNPMGWYRQATGTETELVASSTWDGASTYADSVKGRFTISRDNAKNTVFLQMNSLKPEDTAVYFCAADTYRYGRFLKFDYWGQGTQVTVSS | low polyreactivity |
| QVQLVESGGGLVQPGGSLRLSCAASGSTFWLYAMGWYRQAPGQERELVAAISARTGSTYYADSVKGRFTISRDNAKNTVYLQMNSLKPEDTAVYYCNVRYRGTPYGYWGQGTQVTVSS | low polyreactivity |
| QVQLVESGGGLVQAGGSLRLSCAASGSTYGRNARGWYRQAPGKERELVAAISSGGRTYYADSVKGRFTISRDNAKNTVYLQMNSLKPEDTAVYYCARDDYGTLVQLYGRGFNYWGQGTQVTVSS | low polyreactivity |
| QVQLVESGGGLVQAGGSLRLSCAASGRTFLHYAMGWYRPAPGKERELVAAMSWSGGSTNYADSVKGRFTISRDNAKNTVYLQMNSLKPEDTAVYYCAADFYWVIYSTVEYGYWGQGTQVTVSS | low polyreactivity |
| QVQHVESGGGLVQAGGSLRLSCAASGSIFGRYAMGWYRQAPGKERELVAAIRTDGSTYYADSVKGRFTISRDNAKNTVYLQMNSLKPEDTAVYYCAAVSKFQFHYIQYADRQYGYWGQGTQVTVSS | low polyreactivity |
| QVQLVESVGGLVQAGGSLRLSCAASGRTFYQYALGWYRQAPGKERELVAVINGGGSTNYADSVKGRFTISRDNAKNTVYLQMNSLKPEDTAVYYCNADGRRGRYDYWGQGTQVTVSS | low polyreactivity |
| QVQLVESGGCLVQAGGSLRLSCAASGIIFQGYVMGWYRQAPGKEREFVAAISRSGGTTFYADSVKGRFTISRDNAKNTVYLQMNSLKPVDTAVYSCNRARLGRPGYDYWGQGTQVTVTS | high polyreactivity |
| QVQLVESGGGLVQAGGSLRLSCAASGGTFDWNTMGWYRQAPGKERELVASITSGGRTNYADSVKGRFTISRDNAKNTVYLQMNSLKPEDTAVYYCAIYRRSAYPWQTWVGQKFDYWGQGTQVTVSS | low polyreactivity |
| QVQLVESGGGLVQAGGSLRLSCAASGSIFFPYAMGWYRQAPGKERELVARISWGAGRTYYADSVKGRFTISRDNAKNTVYLQMNSLKPEDTAVYYCAARDRTRYAGYNYWGQGTQVTVSS | high polyreactivity |
| QVQLVESGGGLVQAGGSLRLSCAASGGICRYYAMGWYRPAPGKERELVAAISRGGNTKYADSVKGRFTISRDNAKNTVYLQMNSLKPEDTAVYYCNAYTYNRYYWGQGTQVTVSS | high polyreactivity |
| QVQLVESGGGLVQAGGSLRLSCAASGFTIRWYTMGWYRQAPGKERELVAAITSGGGTYYADSVKGRFTISRDNAKNTVYLQMNILKPEDTAVYYCAARTLSVARRRPYYYWGQGTQVTGSS | high polyreactivity |
| QVHHVESGGGLVQAGGSLRLSCAASGSTFGAHAMGWYRQAPGKERELVAVITWNDGSTYYADSVKGRFKISRDNAKNTVYLQMNSLKPEDTAVYYCAAEYADSWSAFAWNYYYWGQGTQVTVSS | high polyreactivity |
| QVRLVESGGGLVQAGGSLRLSCAASGSTFNNYDMGWYRQAPGKERELVAAYADSVKGRFTISRDNAKNTVYLQMNRLKPEDTADYYCAAVREKTLYYLSRFDYWGQGTQVTVSS | low polyreactivity |
| QVQIVESGGGLVQAGGSLRISCAASGRTYRFYAMGWYRQAPGKERELVAAISSGGSTYYADSVKGRFTISRDNAKNTVYLQMNSLNPEDTAVYYCAAQRWRGASLYDYWGQGTQVTVSS | high polyreactivity |
